According to patent US20200330553A1 (BRIGHAM AND WOMEN S HOSPITAL, published 2020):
Substitutions are numbered along the chain they refer to. Names may count otherwise.

B1: FLAG-sortilin ECD+TMD (receptor)
chain: SAPDYKDDDDKGEDEECGRVRDFVAKLANNTHQHVFDDLRGSVSLSWVGDSTGVILVLTTFHVPLVIMTFGQSKLYRSEDYGKNFKDITDLINNTFIRTEFGMAIGPENSGKVVLTAEVSGGSRGGRIFRSSDFAKNFVQTDLPFHPLTQMMYSPQNSDYLLALSTENGLWVSKNFGGKWEEIHKAVCLAKWGSDNTIFFTTYANGSCKADLGALELWRTSDLGKSFKTIGVKIYSFGLGGRFLFASVMADKDTTRRIHVSTDQGDTWSMAQLPSVGQEQFYSILAANDDMVFMHVDEPGDTGFGTIFTSDDRGIVYSKSLDRHLYTTTGGETDFTNVTSLRGVYITSVLSEDNSIQTMITFDQGGRWTHLRKPENSECDATAKNKNECSLHIHASYSISQKLNVPMAPLSEPNAVGIVIAHGSVGDAISVMVPDVYISDDGGYSWTKMLEGPHYYTILDSGGIIVAIEHSSRPINVIKFSTDEGQCWQTYTFTRDPIYFTGLASEPGARSMNISIWGFTESFLTSQWVSYTIDFKDILERNCEEKDYTIWLAHSTDPEDYEDGCILGYKEQFLRLRKSSMCQNGRDYVVTKQPSICLCSLEDFLCDFGYYRPENDSKCVEQPELKGHDLEFCLYGREEHLTTNGYRKIPGDKCQGGVNPVREVKDLKKKCTSNFLSPEKQNSKSNSVPIILAIVGLMLVTVVAGVLIV
notes: written as the form after propeptide cleavage; also called FLAG-sortilin ECD plus transmembrane domain
B2: 6×His-sortilin ICD+TMD C783A (receptor)
chain: SAPHHHHHHNSVPIILAIVGLMLVTVVAGVLIVKKYVAGGRFLVHRYSVLQQHAEANGVDGVDALDTASHTNKSGYHDDSDEDLLE
B3: FLAG-sortilin full-length (Full) (receptor)
chain: SAPDYKDDDDKGEDEECGRVRDFVAKLANNTHQHVFDDLRGSVSLSWVGDSTGVILVLTTFHVPLVIMTFGQSKLYRSEDYGKNFKDITDLINNTFIRTEFGMAIGPENSGKVVLTAEVSGGSRGGRIFRSSDFAKNFVQTDLPFHPLTQMMYSPQNSDYLLALSTENGLWVSKNFGGKWEEIHKAVCLAKWGSDNTIFFTTYANGSCKADLGALELWRTSDLGKSFKTIGVKIYSFGLGGRFLFASVMADKDTTRRIHVSTDQGDTWSMAQLPSVGQEQFYSILAANDDMVFMHVDEPGDTGFGTIFTSDDRGIVYSKSLDRHLYTTTGGETDFTNVTSLRGVYITSVLSEDNSIQTMITFDQGGRWTHLRKPENSECDATAKNKNECSLHIHASYSISQKLNVPMAPLSEPNAVGIVIAHGSVGDAISVMVPDVYISDDGGYSWTKMLEGPHYYTILDSGGIIVAIEHSSRPINVIKFSTDEGQCWQTYTFTRDPIYFTGLASEPGARSMNISIWGFTESFLTSQWVSYTIDFKDILERNCEEKDYTIWLAHSTDPEDYEDGCILGYKEQFLRLRKSSMCQNGRDYVVTKQPSICLCSLEDFLCDFGYYRPENDSKCVEQPELKGHDLEFCLYGREEHLTTNGYRKIPGDKCQGGVNPVREVKDLKKKCTSNFLSPEKQNSKSNSVPIILAIVGLMLVTVVAGVLIVKKYVCGGRFLVHRYSVLQQHAEANGVDGVDALDTASHTNKSGYHDDSDEDLLE
notes: signal peptide 1-33 is implied by that; Expressed in HEK293 cells; also called FLAG-sortilin WT; FLAG-sortilin wild-type
B4: FLAG-sortilin S316E (receptor)
chain: B3 chain with S247E
B5: 6×His-sortilin full-length (Full) (receptor)
chain: SAPHHHHHHGEDEECGRVRDFVAKLANNTHQHVFDDLRGSVSLSWVGDSTGVILVLTTFHVPLVIMTFGQSKLYRSEDYGKNFKDITDLINNTFIRTEFGMAIGPENSGKVVLTAEVSGGSRGGRIFRSSDFAKNFVQTDLPFHPLTQMMYSPQNSDYLLALSTENGLWVSKNFGGKWEEIHKAVCLAKWGSDNTIFFTTYANGSCKADLGALELWRTSDLGKSFKTIGVKIYSFGLGGRFLFASVMADKDTTRRIHVSTDQGDTWSMAQLPSVGQEQFYSILAANDDMVFMHVDEPGDTGFGTIFTSDDRGIVYSKSLDRHLYTTTGGETDFTNVTSLRGVYITSVLSEDNSIQTMITFDQGGRWTHLRKPENSECDATAKNKNECSLHIHASYSISQKLNVPMAPLSEPNAVGIVIAHGSVGDAISVMVPDVYISDDGGYSWTKMLEGPHYYTILDSGGIIVAIEHSSRPINVIKFSTDEGQCWQTYTFTRDPIYFTGLASEPGARSMNISIWGFTESFLTSQWVSYTIDFKDILERNCEEKDYTIWLAHSTDPEDYEDGCILGYKEQFLRLRKSSMCQNGRDYVVTKQPSICLCSLEDFLCDFGYYRPENDSKCVEQPELKGHDLEFCLYGREEHLTTNGYRKIPGDKCQGGVNPVREVKDLKKKCTSNFLSPEKQNSKSNSVPIILAIVGLMLVTVVAGVLIVKKYVCGGRFLVHRYSVLQQHAEANGVDGVDALDTASHTNKSGYHDDSDEDLLE
notes: 6×His inserted after Ser78-Ala79-Pro80; Written as the form after propeptide cleavage; also called 6×His-sortilin WT; 6×His-sortilin wild-type

Experiments:
[1] = target: the molecule itself; assay: non-reducing western blot; BS3 cross-linking, HEK293 cells
Source text: In reducing western blotting, protein expressions of FLAG-sortilin Full, ECD+TMD and ICD+TMD were detected as bands of plausible molecular size (FIG. 2B). In non-reducing western blotting where disulfide bonds can be retained, FLAG-sortilin Full and ECD+TMD expressed a couple of bands (FIG. 2C). A band of 75-100 kDa was detected as monomers (FIG. 2C). Bands of approximately 200 kDa and higher molecular weight were detected as homodimers and multimers with intermolecular disulfide bonds (FIG. 2C). Next, FLAG-sortilin Full and ECD+TMD were cross-linked using water-soluble, non-cleavable cross-linker, BS3, in HEK293 cells. Both bands of homodimers and multimers appeared via the cross-linking (FIG. 2D). […] Dimerization of FLAG-sortilin ICD+TMD was not clearly detected in the non-reducing western blotting using whole cell lysate (FIG. 2C) potentially due to low protein expression levels of FLAG-sortilin ICD+TMD (FIGS. 2B, 2C). […] Therefore, it was determined whether FLAG-sortilin ICD+TMD can undergo degradation in proteasome and lysosome by adding proteasome inhibitor, MG-132, and lysosome inhibitor, chloroquine, to FLAG-sortilin ICD+TMD HEK293 cells, respectively. […] In non-reducing western blotting, bands with molecular size approximately twice as high as monomers of FLAG-sortilin ICD+TMD were detected (FIG. 2G). […]

[2] = target: the molecule itself; assay: non-reducing western blot, HEK293 cells
[3] = target: B3; assay: TR-FRET and HTRF on HEK293 cells, anti-FLAG(M2)-Cryptate and anti-6HIS-XL665
Description: TR-FRET and HTRF were performed as described (26). FLAG-sortilin Full HEK293 cells were harvested using dissociation solution (e.g., from Sigma Aldrich, Cat#C5914) 24 hours after transfection of 6×His-sortilin expression vector. An incubation under the circle rotator was performed at 4° C. with 1×10^6 cells/mL for TR-FRET and 2×10^6 cells/mL for HTRF containing 1 nmol/L Anti-FLAG® (M2)-Cryptate (Cisbio Bioassays, Cat#61FG2KLA, Lot#25A) and 3 nmol/L Anti-6HIS-XL665 (Cisbio Bioassays, Cat#61HISXLA, Lot#56A) in PBS supplemented with 25% FBS. For TR-FRET, cells were centrifuged at 1,000 rpm for 5 min to remove the antibodies, and resuspended in PBS, and applied into a 96-well white plate. For HTRF, cells were applied without removing the antibodies into a 96-well white plate. Then, the plate was read (excitation: 320 nm, emission: 620 nm (cutoff 570 nm), 665 nm (cutoff 630 nm), Delay […], Integration […]). The FRET signal was calculated as (the ratio of counts per seconds 665:620)×10,000, and % change of the FRET signal by 6×His-sortilin expression was expressed.

Binder | binding result [1] | binding result [2] | also measured
B1 | binds | – | –
B2 | – | no binding | –
B3 | binds | – | –
B4 | – | binds | –
B5 | – | – | binding result [3]: binds
